Assay results taken from article PMC6715741, “Abundant neuroprotective chaperone Lipocalin-type prostaglandin D synthase (L-PGDS) disassembles the Amyloid-β fibrils” (Scientific Reports, 2019).

Biological target: Amyloid β (1–40) peptide, unlabeled, monomeric (UniProt P05067 672-711)
Experiment: cell-based or functional assay

Sequence of Amyloid β (1–40) peptide, unlabeled, monomeric (P05067 672-711): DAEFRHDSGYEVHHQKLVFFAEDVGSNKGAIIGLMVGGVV

- IC50 of WT-L-PGDS for Aβ40 aggregation (ThT end-point fluorescence, 50 µM Aβ40, 37 °C): 980 nM
- fold reduction of the primary nucleation rate constant of Aβ40 aggregation with L-PGDS (ThT curves fitted with Amylofit): 14 fold
- fold reduction of the secondary nucleation rate constant of Aβ40 aggregation with L-PGDS (ThT curves fitted with Amylofit): 6 fold
B1: Human wild-type Lipocalin-type prostaglandin D synthase (L-PGDS) (natural protein, UniProt P41222 23-190, looked up)
chain: APEAQVSVQPNFQQDKFLGRWFSAGLASNSSWLREKKAALSMCKSVVAPATDGGLNLTSTFLRKNQCETRTMLLQPAGSLGSYSYRSPHWGSTYSVSVVETDYDQYALLYSQGSKGPGEDFRMATLYSRTQTPRAELKEKFTAFCKAQGFTEDTIVFLPQTDKCMTEQ
modifications: uniformly 15N labeled in the NMR titration with unlabeled Aβ40; unlabeled elsewhere
